The record followed here is publication PMC5815190.

This test addresses human toll-like receptor 5 (hTLR5) on HEK-Blue-hTLR5 cells (human) (UniProt O60602).
Sequence of UniProt O60602 (O60602 21-858): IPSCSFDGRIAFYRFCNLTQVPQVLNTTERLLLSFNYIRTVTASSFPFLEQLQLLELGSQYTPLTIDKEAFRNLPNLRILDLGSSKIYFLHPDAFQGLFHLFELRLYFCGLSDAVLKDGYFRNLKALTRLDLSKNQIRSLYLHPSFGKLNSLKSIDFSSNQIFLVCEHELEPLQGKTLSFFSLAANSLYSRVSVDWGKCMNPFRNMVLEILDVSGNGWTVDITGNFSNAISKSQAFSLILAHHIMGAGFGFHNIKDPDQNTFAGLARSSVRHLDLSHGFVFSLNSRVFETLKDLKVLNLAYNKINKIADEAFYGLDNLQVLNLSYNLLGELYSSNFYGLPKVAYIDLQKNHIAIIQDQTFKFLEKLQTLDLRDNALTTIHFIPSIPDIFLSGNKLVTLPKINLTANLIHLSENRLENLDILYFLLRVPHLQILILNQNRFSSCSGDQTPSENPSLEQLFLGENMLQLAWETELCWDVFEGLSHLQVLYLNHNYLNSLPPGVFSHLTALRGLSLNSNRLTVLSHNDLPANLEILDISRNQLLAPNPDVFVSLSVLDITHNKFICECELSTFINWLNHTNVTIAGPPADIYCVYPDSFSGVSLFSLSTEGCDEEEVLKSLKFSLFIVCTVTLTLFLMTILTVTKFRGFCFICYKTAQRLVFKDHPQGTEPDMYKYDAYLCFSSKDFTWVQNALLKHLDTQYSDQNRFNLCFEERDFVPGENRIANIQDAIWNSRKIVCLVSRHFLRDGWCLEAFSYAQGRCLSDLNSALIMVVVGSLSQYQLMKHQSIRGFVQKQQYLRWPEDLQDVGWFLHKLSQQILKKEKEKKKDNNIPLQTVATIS

“Lawsonia intracellularis putative flagellin LI0570 (LFliC) (natural protein)” registered an IL-8 mRNA level (RT-PCR, 2^-ddCt) in HEK-Blue-hTLR5 cells treated with 10 and 100 ng/mL LFliC for 24 h of 590 fold.
